These results are taken from US20230212587A1, “Mutant Hydroxyphenylpyruvate Dioxygenase Polypeptide, Encoding Gene Thereof and Use Therefor” (Beijing Dabeinong Biotechnology Co., Ltd., priority 2019, published 2023).

The subject of experiment [1] is Arabidopsis thaliana T1 plants. In words: Topramezone tolerance of transgenic Arabidopsis thaliana T1 plants (pesticide damage grade by bleached leaf area, score, resistance evaluation). The class given is in vivo. The conditions noted are these: mutation combination, Table 8. The procedure, abridged: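 Eighteen days after sowing, wild-type and HPPD-transgenic T1 Arabidopsis receive a topramezone spray at 1×, 2× or 4× field rate (25–100 g ai/ha) or water. Seven days later each plant is graded by its proportion of bleached leaf area.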

For the next experiment, the system named is soybean T1 plants. In words: Herbicide tolerance of transgenic soybean T1 plants to topramezone. Type of experiment: in vivo. The note with it: topramezone 50 and 100 g ai/ha, 7 DAT, compared to control vector DBN11375NN and wild-type. An excerpt:
The Arabidopsisthaliana T1 plants into which the AsHPPDm-F372A-02 nucleotide sequence was introduced, Arabidopsis thaliana T1 plants into which the AsHPPD-02 nucleotide sequence was introduced and wild-type Arabidopsisthaliana plants (18 days after sowing) were sprayed with topramezone at four different concentrations, i.e., 25 g ai/ha (one-fold field concentration, 1×), 50 g ai/ha (two-fold field concentration, 2×), 100 g ai/ha (four-fold field concentration, 4×) and 0 g ai/ha (water, 0×) to determine the tolerance of Arabidopsisthaliana to the herbicide. The degree of damage caused by the herbicide was measured for each plant according to the proportion of bleached leaf area (the proportion of bleached leaf area=bleached leaf area/total leaf area×100%) 7 days after spraying (7 DAT): the case where there is basically no bleached phenotype is defined as grade 0, the case where the proportion of bleached leaf area is less than 50% is defined as grade 1,the case where the proportion of bleached leaf area is more than 50% is defined as grade 2, and the case where the proportion of bleached leaf area is 100% grade is defined as grade 3.
The soybean T1 plants into which the AsHPPDm-F372A-02 nucleotide sequence was introduced, soybean T1 plants into which the ZmHPPDm-F372A-02 nucleotide sequence was introduced, soybean T1 plants into which the PfHPPDm-F372A-02 nucleotide sequence was introduced, soybean T1 plants into which the AsHPPDm-F372A-A110 nucleotide sequence was introduced, soybean T1 plants into which, the PfHPPDm-F372A-G413W nucleotide sequence was introduced, soybean T1 plants into which the control vector DBN11375NN was introduced and wild-type soybean plants (V3-V4 at seedling stage) were sprayed with topramezone at two different concentrations respectively, i.e. 50 g ai/ha (2-fold field concentration, 2 ×) and 100 g ai/ha (4-fold field concentration, 4 ×) to detect the herbicide tolerance of soybean plants. According to the method in point 6 of Example 1, after 7 days of spraying (7 DAT), the damage degree of each plant by the herbicide was statistically analyzed, and the scoring and resistance evaluation were carried out accordingly. The soybean plants into which the AsHPPDm-F372A-02 nucleotide sequence was introduced were of two strains in total (S1 and S2), the soybean plants into which the ZmHPPDm-F372A-02 nucleotide sequence was introduced were of two strains in total (S3 and S4), the soybean plants into which the PfHPPDm-F372A-02 nucleotide sequence was introduced were of two strains in total (S5 and S6), the soybean plants into which the AsHPPDm-F372A-Al 10 nucleotide sequence was introduced were of two strains in total (S7 and S8), the soybean plants into which the PfHPPDm-F372A-G413W nucleotide sequence was introduced were of two strains in total (S9 and S10), the soybean plants into which the control vector DBN11375NN nucleotide sequence was introduced were of one strain in total (S11), and the wild-type soybean plants were of one strain in total (CK1); and 8 plants were selected from each strain and detected.

B1: AsHPPDm-F372A-A110: Avena sativa HPPD with F372A and deletion of alanine at position 110, SEQ ID NO: 412 (protein)
chain: MPPTPATATGAAAAAVTPEHAARSFPRVVRVNPRSDRFPVLSFHHVELWCADAASAAGRFSFALGAPLAARSDLSTGNSAHASLLLRSGALAFLFTAPYAPPPQEAATAATASIPSFSADAARTFAAAHGLAVRSVGVRVADAAEAFRVSVAGGARPAFAPADLGHGFGLAEVELYGDVVLRFVSYPDETDLPFLPGFERVSSPGAVDYGLTRFDHVVGNVPEMAPVIDYMKGFLGFHEFAEFTAEDVGTTESGLNSVVLANNSEAVLLPLNEPVHGTKRRSQIQTYLEYHGGPGVQHIALASNDVLRTLREMRARTPMGGFEFMAPPQAKYYEGVRRIAGDVLSEEQIKECQELGVLVDRDDQGVLLQIATKPVGDRPTFFLEMIQRIGCMEKDEVGQEYQKGGCGGFGKGNFSELFKSIEDYEKSLEVKQSVVAQKS
modifications: AsHPPDm-F372A-A110 Amino Acid Sequence
Turning to B1, in experiment [1] (topramezone 25 g ai/ha), the “Grade 0 (number of plants)” value is listed as 20, the “Grade 1 (number of plants)” value stood at 0, the “Grade 2 (number of plants)” value is given as 0 and the “Grade 3 (number of plants)” value is given as 0. Further, in experiment [1] (topramezone 25 g ai/ha), the “Resistance Grade” value was “Highly resistant” and the score turned out to be 0. Also, in experiment [1] (topramezone 100 g ai/ha), the “Grade 0 (number of plants)” value was 20, the “Grade 1 (number of plants)” value worked out at 0, the “Grade 2 (number of plants)” value worked out at 0 and the “Grade 3 (number of plants)” value is 0. In experiment [1] (topramezone 100 g ai/ha), the “Resistance Grade” value was “Highly resistant” and the score was 0. Further, the “tolerance to topramezone, in words” value in the experiment on soybean T1 plants is given as “higher tolerance”.
